The values that follow come from article PMC8816346 (Science Advances, 2022).

The target of the experiment is TOPBP1, purified recombinant (human, UniProt Q92547 1-1522). Briefly: pull-down.
TOPBP1, purified recombinant, sequence (Q92547 whole entry): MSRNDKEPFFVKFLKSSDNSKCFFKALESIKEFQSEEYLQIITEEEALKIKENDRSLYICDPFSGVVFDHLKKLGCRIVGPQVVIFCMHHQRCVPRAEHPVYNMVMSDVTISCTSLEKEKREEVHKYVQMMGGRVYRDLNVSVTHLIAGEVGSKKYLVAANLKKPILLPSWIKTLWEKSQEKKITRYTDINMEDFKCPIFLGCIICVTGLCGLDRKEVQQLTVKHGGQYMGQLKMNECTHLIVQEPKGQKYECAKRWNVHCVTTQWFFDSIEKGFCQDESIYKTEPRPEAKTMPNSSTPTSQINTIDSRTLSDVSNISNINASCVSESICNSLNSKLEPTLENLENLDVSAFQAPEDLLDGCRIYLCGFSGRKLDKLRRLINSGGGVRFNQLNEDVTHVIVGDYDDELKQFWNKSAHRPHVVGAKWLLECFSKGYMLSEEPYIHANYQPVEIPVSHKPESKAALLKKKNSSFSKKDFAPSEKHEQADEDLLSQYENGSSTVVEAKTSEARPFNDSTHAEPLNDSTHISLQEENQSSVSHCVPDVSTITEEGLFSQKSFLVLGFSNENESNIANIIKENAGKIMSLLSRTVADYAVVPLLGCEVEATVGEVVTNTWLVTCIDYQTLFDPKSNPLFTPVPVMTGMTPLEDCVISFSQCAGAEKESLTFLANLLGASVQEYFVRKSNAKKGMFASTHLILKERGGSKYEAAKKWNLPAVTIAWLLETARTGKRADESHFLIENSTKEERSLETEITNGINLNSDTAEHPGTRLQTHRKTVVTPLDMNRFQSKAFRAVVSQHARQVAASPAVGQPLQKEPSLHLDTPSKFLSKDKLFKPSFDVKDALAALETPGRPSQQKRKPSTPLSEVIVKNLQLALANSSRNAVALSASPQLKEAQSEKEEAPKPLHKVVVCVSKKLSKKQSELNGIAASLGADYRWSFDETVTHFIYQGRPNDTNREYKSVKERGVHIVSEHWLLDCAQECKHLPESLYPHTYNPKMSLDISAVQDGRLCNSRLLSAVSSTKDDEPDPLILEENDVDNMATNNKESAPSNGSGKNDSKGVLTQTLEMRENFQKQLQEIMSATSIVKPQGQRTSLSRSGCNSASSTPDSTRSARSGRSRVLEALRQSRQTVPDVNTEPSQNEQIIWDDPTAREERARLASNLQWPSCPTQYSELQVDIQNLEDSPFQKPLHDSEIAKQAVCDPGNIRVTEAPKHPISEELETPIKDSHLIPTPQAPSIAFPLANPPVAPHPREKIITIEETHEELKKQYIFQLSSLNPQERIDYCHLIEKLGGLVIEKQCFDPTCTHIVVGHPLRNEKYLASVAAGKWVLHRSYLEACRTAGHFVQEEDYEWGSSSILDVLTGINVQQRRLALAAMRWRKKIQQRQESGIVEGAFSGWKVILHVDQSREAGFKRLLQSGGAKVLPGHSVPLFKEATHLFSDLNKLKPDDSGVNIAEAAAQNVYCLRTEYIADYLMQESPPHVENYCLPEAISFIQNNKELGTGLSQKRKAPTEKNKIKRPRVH

B1: BLM^λ (BLM^P dephosphorylated with λ-phosphatase) (natural protein)
chain: not shown
On to B1, for which the binding result is “binds”.
